{
  "source": "paper PMC4949121",
  "about": "(Inorganic chemistry, 2016)",
  "key": {"[1]": {"system": "VLA-4-overexpressing B16F10 mouse melanoma cells", "test": "Cell internalization assay", "type": "cell-based", "details": "10 pmol per well"}, "[2]": {"system": "C57BL/6 mice bearing B16F10 xenografts"}, "[3]": {"test": "in vivo", "details": "female, C57BL/6, mouse, iv, total radioactivity"}, "[4]": {"test": "in vivo", "details": "female, C57BL/6, mouse, tumor and muscle, iv, total radioactivity"}},
  "data": [
    {"smiles": "Cc1ccccc1NC(=O)Nc1ccc(CC(=O)N[C@@H](CCCCNC(=O)/C=C/c2cccnc2)C(=O)N[C@@H](CCCC(=O)O)C(=O)NC2(C(=O)NCCOCCOCCOCCOCC(=O)N[C@@H](CCCCNC(=S)Nc3ccc(CCCN(CCN4CCN(CC(=O)O)CCN(CC(=O)O)CC4)CC(=O)O)cc3)C(N)=O)CCCCC2)cc1", "note": "[^64Cu-NE3TA-PEG4-LLP2A, metal not drawn]", "values": [
      {"measurement": "time at which internalization became saturated", "setting": "[1]; time points 15 min, 1 h, 2 h, 4 h", "value": "~ 2 h"},
      {"measurement": "specific internalization (total minus blocked)", "setting": "[1]; up to 4 h, blocking with unlabeled LLP2A-PEG4 10 μg per well", "value": "High specific internalization"},
      {"measurement": "liver and kidney uptake", "setting": "[2]; biodistribution", "value": "relatively low"},
      {"measurement": "uptake in tumor, spleen, bone, lung, and thymus with blocking", "setting": "[2]; coinjection of excess unlabeled LLP2A-PEG4 (100 μg)", "value": "significantly reduced"},
      {"measurement": "tissue to tissue ratio at 4 h", "setting": "[3]; tumor and blood", "value": "16.8 ± 1.8"},
      {"measurement": "tissue to tissue ratio at 24 h", "setting": "[3]; tumor and muscle", "value": "25.2 ± 7.8"},
      {"measurement": "tissue to tissue ratio at 2 h", "setting": "[4]", "value": "13.1 ± 2.4"},
      {"measurement": "tissue to tissue ratio at 4 h", "setting": "[4]", "value": "30.9 ± 0.7"}
    ]}
  ]
}
